Data reported in PMC6328559.
Blank lines part the entries; values can stand above or below the substance they belong to.

Columns and labels:
[1] = biological target: SLy1 SAM domain construct SAMwt (SLy1 residues P254-E321 with an N-terminal glycine from the tag) (mouse) (UniProt Q8K352); experiment: AUC; sedimentation equilibrium, 30 °C, standard buffer (50 mM potassium phosphate, 20 mM NaCl, 0.1 mM EDTA, pH 6.4) without NaN3; three loading concentrations (SAMwt 60, 120, 300 µM; SAMlg 31, 64, 98 µM) at several speeds; global fit to a monomer-dimer equilibrium; dimer to monomers
[2] = biological target: SLy1 SAM domain construct SAMwt (SLy1 residues P254-E321 with an N-terminal glycine from the tag) (mouse) (UniProt Q8K352); experiment: MST; Alexa Fluor 488 labelled protein kept constant (SAMwt 70 nM, SAMlg 60 nM), total protein varied (SAMwt 1.1-824 µM, SAMlg 0.2-250 µM); standard buffer pH 6.4, room temperature; fit to a monomer-dimer equilibrium; dimer to monomers
TEL SAM (Homo sapiens) = TEL SAM (Homo sapiens) (UniProt P41212); conditions: cited from earlier work
[3] = biological target: Yan SAM (Drosophila melanogaster) (UniProt Q01842); conditions: cited from earlier work

Yan SAM, sequence (Q01842 33-117): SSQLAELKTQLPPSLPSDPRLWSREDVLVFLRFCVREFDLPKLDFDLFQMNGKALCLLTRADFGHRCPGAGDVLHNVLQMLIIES
TEL SAM, sequence (P41212 40-124): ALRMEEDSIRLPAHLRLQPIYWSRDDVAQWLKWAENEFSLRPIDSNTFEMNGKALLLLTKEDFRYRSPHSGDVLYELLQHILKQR

Ka [1]: 8500 M⁻¹ | Kd [1]: 117 µM | stoichiometry N [1]: 2 | Kd [2]: 153 µM
Substance: SLy1 SAM domain construct SAMwt (SLy1 residues P254-E321 with an N-terminal glycine from the tag) (from UniProt Q8K352 254-321) (domain or fragment)

Substance: TEL SAM (from UniProt P41212)
Kd (TEL SAM (Homo sapiens)): 0.0017 µM

Substance: Yan SAM (from UniProt Q01842)
Kd [3]: 11 µM
